Experimental findings from patent publication US20130074217A1 (NUTECH VENTURES, published 2013) are described below.

The target of experiment [1] is T1, EFR-YFPc / EFR-YFPn (Arabidopsis thaliana, UniProt C0LGT6 25-1031).
T1 construct: Two BiFC constructs used in both combinations, expressed in N. benthamiana leaves; not shown: split-YFP half (YFPc or YFPn) from the BiFC vector
T1 sequence (looked up): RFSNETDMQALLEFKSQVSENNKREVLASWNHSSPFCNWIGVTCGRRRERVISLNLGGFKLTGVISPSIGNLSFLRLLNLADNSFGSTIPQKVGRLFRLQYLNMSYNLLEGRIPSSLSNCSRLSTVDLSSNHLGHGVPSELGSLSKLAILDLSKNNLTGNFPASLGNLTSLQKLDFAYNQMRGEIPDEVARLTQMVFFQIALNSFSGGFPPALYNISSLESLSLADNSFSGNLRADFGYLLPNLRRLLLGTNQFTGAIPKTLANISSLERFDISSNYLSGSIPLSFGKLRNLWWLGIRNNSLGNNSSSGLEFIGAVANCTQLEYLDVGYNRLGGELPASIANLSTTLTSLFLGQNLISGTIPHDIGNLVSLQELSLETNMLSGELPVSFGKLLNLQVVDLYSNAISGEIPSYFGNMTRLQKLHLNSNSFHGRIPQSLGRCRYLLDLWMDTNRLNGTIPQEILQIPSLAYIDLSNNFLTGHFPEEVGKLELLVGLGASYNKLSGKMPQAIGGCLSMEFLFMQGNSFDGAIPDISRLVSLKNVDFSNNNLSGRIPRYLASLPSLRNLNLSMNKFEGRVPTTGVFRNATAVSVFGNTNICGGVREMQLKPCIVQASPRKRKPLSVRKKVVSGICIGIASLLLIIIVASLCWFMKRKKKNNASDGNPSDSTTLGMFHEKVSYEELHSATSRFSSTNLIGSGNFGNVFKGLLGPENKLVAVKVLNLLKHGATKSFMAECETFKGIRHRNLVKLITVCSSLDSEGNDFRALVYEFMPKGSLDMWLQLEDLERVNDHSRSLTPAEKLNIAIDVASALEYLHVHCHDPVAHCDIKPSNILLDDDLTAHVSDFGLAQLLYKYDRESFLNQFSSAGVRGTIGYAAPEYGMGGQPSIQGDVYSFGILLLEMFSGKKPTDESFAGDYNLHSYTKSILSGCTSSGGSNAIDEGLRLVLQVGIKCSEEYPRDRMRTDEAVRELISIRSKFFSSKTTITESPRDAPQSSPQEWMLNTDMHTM
Briefly: bimolecular fluorescence complementation in N. benthamiana (panel B).

The target in experiment [2] is T2, FLS2-YFPc / FLS2-YFPn (Arabidopsis thaliana, UniProt Q9FL28 24-1173).
T2 construct: Two BiFC constructs used in both combinations, expressed in N. benthamiana leaves; not shown: split-YFP half (YFPc or YFPn) from the BiFC vector
In words: bimolecular fluorescence complementation in N. benthamiana, with plasmolysis (panel E).

Experiment [3] addresses T3, BAK1-HA (Arabidopsis thaliana, UniProt Q94F62 26-615).
T3 construct: Transiently expressed in N. benthamiana; also called LRR-RK BAK1; 35S::BAK1-HA; not shown: HA tag
T3 sequence (looked up): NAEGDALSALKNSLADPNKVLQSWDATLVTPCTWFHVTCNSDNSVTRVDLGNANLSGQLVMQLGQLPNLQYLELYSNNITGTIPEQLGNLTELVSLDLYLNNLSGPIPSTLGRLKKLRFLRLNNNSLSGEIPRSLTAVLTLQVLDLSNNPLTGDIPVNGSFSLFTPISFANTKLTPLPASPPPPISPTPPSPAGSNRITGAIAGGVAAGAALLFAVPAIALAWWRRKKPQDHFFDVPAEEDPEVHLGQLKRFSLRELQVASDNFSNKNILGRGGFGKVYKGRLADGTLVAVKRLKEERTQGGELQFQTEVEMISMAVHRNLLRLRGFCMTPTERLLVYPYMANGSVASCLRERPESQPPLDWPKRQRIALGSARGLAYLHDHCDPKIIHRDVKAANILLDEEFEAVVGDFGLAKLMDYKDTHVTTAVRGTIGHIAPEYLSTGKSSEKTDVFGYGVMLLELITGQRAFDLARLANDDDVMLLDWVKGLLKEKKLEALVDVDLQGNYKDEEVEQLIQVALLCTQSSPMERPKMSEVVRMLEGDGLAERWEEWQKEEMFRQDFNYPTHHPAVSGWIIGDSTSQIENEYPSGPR
Briefly: co-immunoprecipitation with GFP Trap beads after transient co-expression in N. benthamiana.

T2 sequence (Q9FL28 24-1173): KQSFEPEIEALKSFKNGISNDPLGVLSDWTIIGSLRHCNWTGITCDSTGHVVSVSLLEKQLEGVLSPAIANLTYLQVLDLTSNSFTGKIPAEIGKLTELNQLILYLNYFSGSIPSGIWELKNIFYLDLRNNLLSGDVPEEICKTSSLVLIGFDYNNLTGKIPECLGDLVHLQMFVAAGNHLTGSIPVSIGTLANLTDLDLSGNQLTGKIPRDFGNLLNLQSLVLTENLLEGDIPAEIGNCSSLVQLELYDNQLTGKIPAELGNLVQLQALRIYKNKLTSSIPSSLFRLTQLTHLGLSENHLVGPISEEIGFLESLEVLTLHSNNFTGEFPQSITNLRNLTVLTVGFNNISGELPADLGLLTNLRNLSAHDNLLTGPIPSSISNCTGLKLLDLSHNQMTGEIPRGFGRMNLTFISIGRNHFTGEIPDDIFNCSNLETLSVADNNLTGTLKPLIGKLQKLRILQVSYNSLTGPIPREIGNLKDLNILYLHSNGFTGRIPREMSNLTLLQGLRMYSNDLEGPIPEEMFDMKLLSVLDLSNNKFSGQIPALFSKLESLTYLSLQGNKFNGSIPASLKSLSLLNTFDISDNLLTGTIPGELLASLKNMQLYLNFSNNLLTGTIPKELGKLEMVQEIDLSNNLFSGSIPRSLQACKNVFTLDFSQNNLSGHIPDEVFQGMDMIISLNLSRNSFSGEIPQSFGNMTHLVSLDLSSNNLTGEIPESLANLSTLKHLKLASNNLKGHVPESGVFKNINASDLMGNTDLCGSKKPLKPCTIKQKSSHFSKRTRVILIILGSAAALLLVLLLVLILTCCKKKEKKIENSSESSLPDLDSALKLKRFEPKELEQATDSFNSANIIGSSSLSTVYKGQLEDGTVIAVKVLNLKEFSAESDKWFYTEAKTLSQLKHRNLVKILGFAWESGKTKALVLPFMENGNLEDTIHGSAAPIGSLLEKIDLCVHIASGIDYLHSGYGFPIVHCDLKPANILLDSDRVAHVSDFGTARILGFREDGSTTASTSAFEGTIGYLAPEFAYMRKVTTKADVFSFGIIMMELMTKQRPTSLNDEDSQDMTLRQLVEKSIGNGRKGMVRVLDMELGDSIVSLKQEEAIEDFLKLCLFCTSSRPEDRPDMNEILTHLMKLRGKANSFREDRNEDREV

B1: GRP7-YFPn / GRP7-YFPc (other)
chain: MASGDVEYRCFVGGLAWATDDRALETAFAQYGDVIDSKIINDRETGRSRGFGFVTFKDEKAMKDAIEGMNGQDLDGRSITVNEAQSRGSGGGGGHRGGGGGGYRSGGGGGYSGGGGSYGGGGGRREGGGGYSGGGGGYSSRGGGGGSYGGGRREGGGGYGGGEGGGYGGSGGGGGW
notes: Two BiFC constructs (N- or C-terminal YFP half) used in both combinations; Results are reported for them together; also called GRP7-YFPn/c; not shown: split-YFP half (YFPn or YFPc) from the pAM-PAT-35S BiFC vector
In the case of B1, the binding result in experiment [1] and in experiment [2] was “binds” each time.

B2: GRP7-eGFP (other)
chain: B1 chain
notes: Transiently expressed in N. benthamiana under the 35S promoter; also called 35S::GRP7-eGFP; not shown: C-terminal enhanced green fluorescent protein (eGFP) tag
For B2, the binding result in experiment [3] is listed as “no binding”.
